According to IntAct's records for PubMed 34237462:

B1: Anterior gradient protein 2 homolog (Homo sapiens), O95994 (parent)
chain: MEKIPVSAFLLLVALSYTLARDTTVKPGAKKDTKDSRPKLPQTLSRGWGDQLIWTQTYEEALYKSKTSNKPLMIIHHLDECPHSQALKKVFAENKEIQKLAEQFVLLNLVYETTDKHLSPDGQYVPRIMFVDPSLTVRADITGRYSNRLYAYEPADTALLLDNMKKALKLLKTEL

Variants of: B1
Conditions: with muc2_human MUC2, Q02817

Row | Variant | effect of a mutation on the interaction
1 | MEKIPVSAFLLLVALSYTLARDTTVKPGAKKDTKDSRPKLPQTLSRGWGDQLIWTQTYEEALYKSKTSNKPLMIIHHLDECPHSQALKKVFAENKEIQKLAEQFVLLNLVYETTDKYLSPDGQYVPRIMFVDPSLTVRADITGRYSNRLYAYEPADTALLLDNMKKALKLLKTEL [H117Y] | decreasing interaction strength
